Drawing on article PMC2279226, this text covers initial rate of nucleosome repositioning by RSC relative to the unmodified S28C control (competitive sliding assay, 54A18 DNA, 30 °C, 1 mM ATP) and Km for nucleosomes of ATP hydrolysis by RSC (real-time MDCC-PBP ATPase assay, 0.3 nM RSC, 36W36 nucleosomes), against the unmodified control for 1 substance.

For assay [1], the target named is H3 (K9, 14, 18, 23) tetra-acetylated nucleosome (Xenopus laevis).
Assay [2] shares this target. The source holds these as a separate data set.

Take RSC complex (from UniProt Q02206 1-625): the initial rate of nucleosome repositioning by RSC relative to the unmodified S28C control (competitive sliding assay, 54A18 DNA, 30 °C, 1 mM ATP) in assay [1] amounted to 16 fold. The Km for nucleosomes of ATP hydrolysis by RSC (real-time MDCC-PBP ATPase assay, 0.3 nM RSC, 36W36 nucleosomes), against the unmodified control in assay [2] came to 3 fold lower.
